Assay results reported in paper PMC6028548.

Key:
Kif18b_(500–593) (human) = test: SEC-MALS; Superdex 200 10/300 GL, MiniDAWN detector; protein at 2 mg/ml
[1] = molecular target: Kif18b-GFP-His (full-length Kif18-GFP-6×His) (human); test: single-molecule photobleaching (TIRF microscopy); Kif18b-GFP motors moving on GMP-CPP–stabilized microtubules; bleaching steps and intensities of GFP
[2] = molecular target: GMP-CPP–stabilized microtubules and dynamic microtubules grown from GMP-CPP seeds (TIRF assays) (UniProt P02550); test: single-molecule TIRF microscopy; rhodamine-labeled GMP-CPP microtubules held on the glass by anti–β-tubulin antibodies; 1–10 nM motor in BRB80 with 1 mM ATP, 0.5 mg/ml casein, oxygen scavengers; 37°C
[3] = molecular target: Kif18b-GFP-His (full-length Kif18-GFP-6×His) (human); test: SEC-MALS; Superdex 200 10/300 GL, MiniDAWN detector; Kif18b-GFP-His at 0.3 mg/ml in gel filtration buffer (25 mM Hepes, pH 7.5, 150 mM NaCl, 300 mM KCl, 5 mM β-mercaptoethanol, 1 mM MgCl2, 1 mM Na-EGTA, 1 mM ATP)

Row | Substance | stoichiometry N (Kif18b_(500–593) (human)) | stoichiometry N [1] | dwell time at the microtubule plus end [2] | stoichiometry N [3]
1 | Kif18b_(500–593) (domain or fragment) | 2 |  |  | 
2 | Kif18b-GFP-His (full-length Kif18-GFP-6×His) (natural protein) |  | 2 | 22.8 s | 2
3 | Kif18bΔC-GFP-His (domain or fragment) |  |  | 8.5 s | 
